Measured values: publication PMC10065799, “High-throughput profiling of sequence recognition by tyrosine kinases and SH2 domains using bacterial peptide display” (eLife, 2023)
Square brackets hold non-standard residues; d marks the D form. pY = N[C@@H](Cc1ccc(OP(=O)(O)O)cc1)C(=O)O

Target: human c-Src SH2 domain (residues 143-250) (human, UniProt P12931-1 143-250, biotin on the Avi tag (co-expression with the biotin ligase BirA))
Assay: fluorescence polarisation; competition: unlabeled phosphopeptide serially diluted against 30 nM fluorescent peptide and 240 nM (1.5 x KD) c-Src SH2; same buffer; 25 °C; cubic binding equation
Conditions: both partners purified

Row | binding result | Binder
1 | binds | Ac-QSDQRR[pY]SLIDRG-NH2 (SMILES CC[C@H](C)[C@H](NC(=O)[C@H](CC(C)C)NC(=O)[C@H](CO)NC(=O)[C@H](Cc1ccc(OP(=O)(O)O)cc1)NC(=O)[C@H](CCCNC(=N)N)NC(=O)[C@H](CCCNC(=N)N)NC(=O)[C@H](CCC(N)=O)NC(=O)[C@H](CC(=O)O)NC(=O)[C@H](CO)NC(=O)[C@H](CCC(N)=O)NC(C)=O)C(=O)N[C@@H](CC(=O)O)C(=O)N[C@@H](CCCNC(=N)N)C(=O)NCC(N)=O, source: synthetic peptide (synthesized in-house, RP-HPLC purified)) [CLIP2_Y972 phosphopeptide Ac-QSDQRR(pY)SLIDRG-NH2]
2 | binds | Ac-QSDQRR[pY]SLIDPG-NH2 (SMILES CC[C@H](C)[C@H](NC(=O)[C@H](CC(C)C)NC(=O)[C@H](CO)NC(=O)[C@H](Cc1ccc(OP(=O)(O)O)cc1)NC(=O)[C@H](CCCNC(=N)N)NC(=O)[C@H](CCCNC(=N)N)NC(=O)[C@H](CCC(N)=O)NC(=O)[C@H](CC(=O)O)NC(=O)[C@H](CO)NC(=O)[C@H](CCC(N)=O)NC(C)=O)C(=O)N[C@@H](CC(=O)O)C(=O)N1CCC[C@H]1C(=O)NCC(N)=O, source: synthetic peptide (synthesized in-house, RP-HPLC purified)) [CLIP2_Y972_R977P phosphopeptide Ac-QSDQRR(pY)SLIDPG-NH2]
